Drawing on patent publication US6656471, this text covers reduction in HIV-1 envelope-specific CTL activity (PBMCs from LB, E:T 25:1, 1:4 dilution of W6/32 supernatant), specific lysis value with W6/32 (E:T 25:1) and specific lysis value without W6/32 (E:T 25:1) for one substance.

This experiment deals with HLA class I (human). Nature of the experiment: cell-based or functional assay.

In the case of “W6/32, the class I-specific antibody, from hybridoma culture supernatants (ATCC: HB95)”, the reduction in HIV-1 envelope-specific CTL activity (PBMCs from LB, E:T 25:1, 1:4 dilution of W6/32 supernatant) worked out at 73%; the specific lysis value with W6/32 (E:T 25:1) was 6.2%; the specific lysis value without W6/32 (E:T 25:1) was 23.2%.
